Measured values taken from patent US20160229920A1 (University of Texas, published 2016).
Each block holds one binder with its values, some of them ahead of it.

How the values were obtained:
[1] = target: T1, HER3 on the plasma membrane of SK-BR-3 and BT-474 breast cancer cells (human, UniProt P21860 20-1342); assay: fluorescence microscopy of SK-BR-3 cells treated with 50 nM antibody for 15 min at 37 C and chased 45 min; detection with Alexa 555 anti-human IgG, co-stain LAMP-1; the cells carry HER2 and HER3 and the staining of the bispecific is not separated between the two
T1 construct: whole, on cells; also called cell surface HER3
Experimental: Cells were fixed, permeabilized and stained for LAMP-1. […] Scale bars=2 μm.
For fixation, cells were treated with 1.7% (w/v) paraformaldehyde for 10 minutes at 37° C. and then permeabilized with 0.05% (v/v) saponin for 10 minutes at room temperature in PBS. […] Cells were washed twice with PBS between each incubation step and were stored at 4° C. in 1% BSA/PBS.

[2] = target: T1, HER3 on the plasma membrane of SK-BR-3 …; assay: fluorescence microscopy of SK-BR-3 cells pulsed with 50 nM antibody for 5 min at 37 C and chased 0, 10 or 20 min; detection with Alexa 555 anti-human IgG, co-stain EEA-1 [Continued]

binding result [1]: binds
B1: bispecific trastuzumab with anti-HER3 Ab6 scFv (TAb6) (bispecific antibody)
heavy: not shown
light: DIELTQSPSSLSASVGDRVTITCRASQDVNTAVAWYQQKPGKAPKLLIYSASFLYSGVPSRFSGSRSGTDFTLTISSLQPEDFATYYCQQHYTTPPTFGQGTKLEIKRTVAAPSVFIFPPSDEQLKSGTASVVCLLNNFYPREAKVQWKVDNALQSGNSQESVTEQDSKDSTYSLSSTLTLSKADYEKHKVYACEVTHQGLSSPVTKSFNRGEC
notes: Morrison format, expressed in CHO cells; also called bispecific anti-HER2/HER3 antibody

binding result [2]: binds
B2: tetrameric anti-HER3 (Ab6tet) (antibody)
heavy: not shown
light: DIELTQPASVSGSPGQSITISCTGTSSDVGSYNVVSWYQQHPGKAPKLIIYEVSQRPSGVSNRFSGSKSGNTASLTISGLQTEDEADYYCCSYAGSSIFVIFGGGTKLEIKRTVAAPSVFIFPPSDEQLKSGTASVVCLLNNFYPREAKVQWKVDNALQSGNSQESVTEQDSKDSTYSLSSTLTLSKADYEKHKVYACEVTHQGLSSPVTKSFNRGEC
notes: Residues 1-19 are the leader; also called tetravalent anti-HER3 antibody; multivalent anti-HER3 antibody
